Tests used:
[1] = biological target: parental antibody C225v5; assay: ELISA; target antibody coated at 1 ug/ml, HRP anti-rabbit IgG, OD 450 nm
[2] = biological target: 3954-1204-c225v5 activatable anti-EGFR antibody activated with uPA; assay: as above

B1: antibody 85-1 (antibody, V domains shown)
VH: QSLEESGGHLVTPGTPLTLTCKASGFSLSSYCMSWVRQAPGKGLEWIGIIGGICSTYYAAWAKGRFTISKTSTTVDLKIASPTTEDTATYFCARPAYNSDPIWGPGTLVTVSS
VL: QVLTQTPSPVSVAVGGTVTINCQASQSVYNNNYLSWYQQKPGQPPKVLIYDAATLASGVSSRFRGSGSGTQFTLTISDVQCDDAATYYCLGEFSCGSADCNAFGGGTEVVVKG
notes: also called clone 85
B1: no binding [1]; no binding [2].

Reference: patent US20170326260A1 (CYTOMX THERAPEUTICS, published 2017)
